From US20160251436A1 (PD 1 ACQUISITION GROUP, published 2016)
Residue numbers refer to the chain shown, from its start.

B1: 100244_C7VH10_100245_C8VK5 (antibody, V domains shown)
VH: EVQLQESGPELVRPGASVKMSCKASGYTFTSYWMHWVKQRPGQGLEWIGMIDPSNSETSLNQKFKDKATLNVDKSSKTAYMQLSSLTSEDSAVYYCARSRGNYAYDMDYWGQGTSVTVSS
VL: DIVITQTTAIMSASPGEKVTLTCSASSSVSSNYLYWYQQRPGSSPKLWIYSTSNLASGVPARFSGSGSGTSYSLTISSMEAEDAASYFCHQWSSYPPTFGSGTKLEIK
notes: Mouse variable regions; cloned into pFUSE-CHIg-mG1 (murine IgG1 Fc), expressed in HEK293
B2: 100244_C7VH10_100245_C8VK5m1 (antibody, V domains shown)
VH: B1 VH
VL: B1 VL with I4L, T8P
notes: Mouse variable regions; cloned into pFUSE-CHIg-mG1 (murine IgG1 Fc), expressed in HEK293; also called 244C7m1
B3: 100258_F6VH4_100259_F6VK1m1 (antibody, V domains shown)
VH: B1 VH with D52E, N55S, K77N, D106E
VL: B1 VL with I4M, T8P, I10T, S30N, R40K, L47V, I107L
notes: Mouse variable regions; cloned into pFUSE-CHIg-mG1 (murine IgG1 Fc), expressed in HEK293; also called 258F6m
B4: 100388_C1VH2_100389_C1VK1 (antibody, V domains shown)
VH: EVQLQESGPELVKPGASVKIPCKASGYTFTDYNMDWVKQSHGKSLEWIGDIDPNNGGIIYNQKFKGKAALTVDKSSSTAYMELRSLTSEDTAVYYCARWRSSMDYWGQGTSVTVSS
VL: DIVMTQSPSSLSASLGDRVTISCSASQDISSYLNWYQQKPDGTVKLLIYYTSSLHSGVPSRFSGSGSGTDYSLTISNLEPEDIATYYCQQYSELPWTFGGGTKLEIK
notes: Mouse variable regions; cloned into pFUSE-CHIg-mG1 (murine IgG1 Fc), expressed in HEK293; also called 388C12A
B5: 100388_C1VH2_100389_C1VK2 (antibody, V domains shown)
VH: B4 VH
VL: B4 VL with M4L, S7T, D28G, S31N, E93K
notes: Mouse variable regions; cloned into pFUSE-CHIg-mG1 (murine IgG1 Fc), expressed in HEK293; also called 388C12B
B6: 100411_C2VH3_100412_C2VK7 (antibody, V domains shown)
VH: EVQLQESGPGLVKPSQSLSLTCTVTGYSITSDYAWNWIRQFPGNKLEWMGYITYSGSPTYNPSLKSQFSITRDTSKNQFFLQLNSVTTEDTATYYCARGLGGHYFDYWGQGTTLTVSS
VL: DIVLTQTTATLSVTPGDRVSLSCRASQSISDYLHWYQQKSHESPRLLIKYASQSISGIPSRFSGSGSGSDFTLTVNSVEPEDVGVYYCQNGHSYPYTFGGGTKLEIK
notes: as for B1
B7: 100394_F1VH8_100395_F1VK4 (antibody, V domains shown)
VH: B4 VH with I58T, K63N, A69T
VL: B4 VL with M4L, D28G, S31N, E93K
notes: as for B1
B8: 100392_B4VH10_100393_B4VK10 (antibody, V domains shown)
VH: B4 VH with K13R, K38M, I58T, A69T, A97T
VL: B4 VL with D28G, S31N, S53N, N77D, E79A, E93Y
notes: as for B1
B9: 100388_H4VH1_100389_H4VK4 (antibody, V domains shown)
VH: EVQLQESGPGLVAPSQSLSITCTVSGFSLTNYGVDWVRQSPGKGLEWLGVIWGVGSTNYNSALKSRLSISKDNSKSQVFLKMNSLQTDDTAMYYCASDGFVYWGQGTLVTVSS
VL: DIVLTQDELSNPVTSGESVSISCRSSKSLLYKDGKTYLNWFLQRPGQSPQVLIYFMSTRASGVSDRFSGSGSGTDFTLEISRVKAEDVGVYYCQQLVDFPFTFGSGTKLELK
notes: as for B1
B10: 100392_C3VH7_100393_C3VK10 (antibody, V domains shown)
VH: B9 VH with N31S, V54I, T87S
VL: B9 VL with L4M, S10Y, L111I
notes: as for B1
B11: 100413_H1VH3_100414_H1VK6 (antibody, V domains shown)
VH: EVQLQESGPSLVQPSQSLSITCTVSGFSLTNYGVHWVRQSPGKGLEWLGVIWRGGNTDYNAAFMSRLSITKDNSKSQVFFKFHSLQTDDTAIYYCAASMIGGYWGQGTTLTVSS
VL: DIVLTQSPLSLPVSLGDQASISCRSSQSIVHSDGNTYLEWYLQKPGQSPKLLIYKVSNRFSGVPDRFSGSGSGTDFTLKISRVEAEDLGIYYCFQGSHVPLTFGAGTKLELK
notes: as for B1

The binders below were run against T1, human Programmed Death-1 (PD-1) expressed on the cell surface (human, UniProt Q15116 25-288) (assay: cell binding, HEK293 cells expressing human PD-1, fluorescent anti-mouse secondary).
T1 construct: whole, on cells; also called CD279; Human PD-1 Expressed on HEK293 Surface
T1 sequence (Q15116 25-288): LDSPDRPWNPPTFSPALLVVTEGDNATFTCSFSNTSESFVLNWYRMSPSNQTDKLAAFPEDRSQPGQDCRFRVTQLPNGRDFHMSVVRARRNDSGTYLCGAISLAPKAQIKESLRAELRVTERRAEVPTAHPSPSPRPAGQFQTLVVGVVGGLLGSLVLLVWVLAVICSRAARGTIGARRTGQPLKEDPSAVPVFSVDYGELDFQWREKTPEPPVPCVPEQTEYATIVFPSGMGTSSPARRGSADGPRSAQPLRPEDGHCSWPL
Experimental: Recombinant antibodies from cultured supernatants were also used in cell-based binding studies. HEK293 cells were transfected (Qiagen, SuperFect) with expression plasmids encoding the Ig heavy and light chains of anti-PD-1 antibodies. After 3-5 days, recombinant antibodies in the supernatants of transfected cells were harvested. Stable HEK293 cells expressing human PD-1 or primary cells were used for the cell-based binding confirmation studies. Antibodies from cultured supernatants were assessed for binding to cell surface PD-1 using fluorescently labeled anti-mouse IgG (polyclonal) antibody (Jackson Immunoresearch).
In both studies, commercially available mouse anti-PD-1 antibody and isotype control mouse IgG1 […] were used as controls. […] Strong binding is denoted as “+++”, medium binding is denoted as “++”, and weak binding is denoted as “+”.
B1: binds.
B2: binds.
B3: binds.
B4: binds.
B5: binds.
B6: binds.

Each binder was assayed against T2, PD-1-HIS (human, UniProt Q15116) (assay: ELISA, supernatant of transfected HEK293 cells on PD-1-HIS(tag), OD 450 nm, average of two experiments).
T2 construct: soluble extracellular domain; May be the same protein as m2; also called PD-1-HIS(tag); PD-1-His Tag (Sino Biological #10377-H08H-50)
T2 sequence (Q15116 25-167 limits assumed): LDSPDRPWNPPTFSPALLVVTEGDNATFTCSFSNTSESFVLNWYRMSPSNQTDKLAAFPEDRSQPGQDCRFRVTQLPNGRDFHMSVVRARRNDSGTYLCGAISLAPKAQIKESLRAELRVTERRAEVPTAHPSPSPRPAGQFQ
B1: binds.
B2: binds.
B3: binds.
B7: binds.
B4: binds.
B5: binds.
B8: binds.
B6: binds.
B9: binds.
B10: binds.
B11: binds.
